Data published in patent publication US20030073808A1 (KIMBERLY CLARK WORLDWIDE, published 2003).
Primed or numbered codes have the meaning given here. Where no end group is shown, it is not given here. PSDE = pyridine disulfide ethylenediaminetetraacetic acid; AFTA = 2-amino-4-fluorophenol N,N,O-triacetic acid; AFTA″ = not defined here

B1: ChePep-1 (PSDE coupled with the peptide having SEQ ID No. 4) (peptide)
peptide: C(PSDE)SAVPVH
notes: Synthetic TIMP-derived peptide covalently coupled to a small-molecule zinc chelator (PSDE); also called ChepPep-1; zinc chelating peptide
B2: ChePep-6 (AFTA combined with a peptide having SEQ ID No. 8) (peptide)
peptide: {AFTA″}-CTCVP
modifications: cysteine pairing not given here; reading uncertain
notes: also called ChepPep-6; chelating peptide (CP)

Experiments:
[1] = molecular target: T1, Active MMP-9 enzyme (UniProt P14780 107-707, limits assumed); test: enzyme inhibition of MMP-9 (fluorescent substrate cleavage, inhibitory constants derived from the curves)
T1 construct: Bought as 'Active MMP-9 enzyme' from Calbiochem
T1 sequence (P14780 107-707 limits assumed): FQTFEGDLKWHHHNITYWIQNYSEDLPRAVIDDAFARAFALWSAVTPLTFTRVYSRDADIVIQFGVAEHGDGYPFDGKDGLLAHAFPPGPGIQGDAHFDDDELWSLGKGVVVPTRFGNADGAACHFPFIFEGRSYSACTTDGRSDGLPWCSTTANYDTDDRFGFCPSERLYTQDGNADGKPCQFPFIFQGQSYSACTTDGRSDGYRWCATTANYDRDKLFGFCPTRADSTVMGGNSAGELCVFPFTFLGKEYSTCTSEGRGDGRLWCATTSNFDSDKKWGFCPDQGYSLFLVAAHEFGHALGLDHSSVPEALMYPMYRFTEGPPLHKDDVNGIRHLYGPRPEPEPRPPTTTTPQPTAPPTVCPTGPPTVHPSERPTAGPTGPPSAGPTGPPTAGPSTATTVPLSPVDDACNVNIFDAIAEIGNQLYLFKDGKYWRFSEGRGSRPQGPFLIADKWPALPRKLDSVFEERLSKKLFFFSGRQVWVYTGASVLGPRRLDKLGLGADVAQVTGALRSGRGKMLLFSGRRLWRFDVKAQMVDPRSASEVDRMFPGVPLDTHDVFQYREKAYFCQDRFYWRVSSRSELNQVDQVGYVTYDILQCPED
Description: Two enzymatic assays were performed. The first assay measured the enzymatic hydrolysis of fluoresceinated collagen by MMP-9 as a function of time. Fluoresceinated collagen (Molecular Probes, Inc.), at a concentration of 5 μM was added to reaction buffer (50 mM Tris-HCl (pH 7.6), 150 mM NaCl, 5 mM CaCl₂, 0.1 mM NaN₃) and was placed into a Spectrosil quartz fluorometer cuvette. MMP at a concentration of 0.1 μM was mixed with varying amounts of chelating peptide having SEQ ID No. 4 or 6 and incubated at 25° C. for 10 minutes to effect binding. The protein mixture was added to the collagen substrate and mixed quickly. Fluorescence emission intensity at 520 nm was measured as a function of time (excitation wavelength 495 nm) in a Shimadzu RF5301 fluorometer. The fluorescein release assay was used to determine the inhibitory constant (Kᵢ) of the chelating peptide inhibitor ([I]) according to Segel (1993) via the use of Dixon plots (1/v vs. [I]), such that: […]

[2] = molecular target: T1, Active MMP-9 enzyme; test: enzyme inhibition of MMP-9 (FRET substrate peptide cleavage, inhibitory constants derived from the curves)
Description: FIG. 4 illustrates ChePep-5 regulation of MMP-9 via FRET assay. ChePep-5 is composed of a AFTA combined with a peptide having SEQ ID No. 7. ChePep-5 was incubated with MP-9 for 10 minutes to effect binding. This mixture was added to the FRET substrate peptide in reaction buffer. Fluorescence measurements were made at the indicated times. The curves represent ChepPep-5: MMP-9 molar stoichiometries of 0:1 (closed circles), 0.1:1 (open circles), 0.2:1 (closed squares), 0.3:1 (open squares). Excitation was at 365 nm, and the emission was fixed at 450 nm.
The second assay utilized the technique of fluorescence resonance energy transfer (FRET). The substrate peptide (Calbiochem #444221) comprised seven amino acids, coupled to a carboxyl terminal dinitrophenyl acceptor, and an amino terminal 2-aminobenzo-anthraniloyl (Abz) moiety donor. Cleavage of this substrate by MMP-9 results in the liberation of a fluorescent product (365 nm excitation, 450 nm emission). […] MMP at a concentration of 0.1 μM was mixed with varying amounts of chelating peptide (0, 0.01, 0.02, 0.04, and 0.1 μM) and incubated at 25° C. for 10 minutes to effect binding. The protein mixture was added to the peptide substrate and mixed quickly. Fluorescence intensity as a function of time was measured with a Dynex MFX fluorescence microtiter plate reader. Fluorescence intensity was related back to moles of peptide cleaved by producing a standard curve with an Abz containing non-FRET peptide. Inhibitory constants were derived from the curves and are listed below in Table 2.

Binder | Ki [1] [µM] | Ki [2] [µM]
B1 | 98 | 
D(IDA)SAVPVH-NH2 [ChePep-2 (IDA coupled with a peptide having SEQ ID No. 5)] |  | 67
IYTAC(PSDE)MSAV (not fully specified (C-terminus)) [ChePep-3 (PSDE combined with a peptide having SEQ ID No. 6)] |  | 350
B2 |  | 125
{AFTA}-VHTHLCD (also called ChepPep-5) [ChePep-5 (AFTA combined with a peptide having SEQ ID No. 7)] |  | 221
